Results on 2 molecules are retold here after PMC7553779 (eLife, 2020).

First the molecules themselves.
B1: truncated human acid-sensing ion channel 1a with the 60 carboxyl terminal residues removed (hASIC1a^ΔC) (domain or fragment)
chain: MELKAEEEEVGGVQPVSIQAFASSSTLHGLAHIFSYERLSLKRALWALCFLGSLAVLLCVCTERVQYYFHYHHVTKLDEVAASQLTFPAVTLCNLNEFRFSQVSKNDLYHAGELLALLNNRYEIPDTQMADEKQLEILQDKANFRSFKPKPFNMREFYDRAGHDIRDMLLSCHFRGEVCSAEDFKVVFTRYGKCYTFNSGRDGRPRLKTMKGGTGNGLEIMLDIQQDEYLPVWGETDETSFEAGIKVQIHSQDEPPFIDQLGFGVAPGFQTFVACQEQRLIYLPPPWGTCKAVTMDSDLDFFDSYSITACRIDCETRYLVENCNCRMVHMPGDAPYCTPEQYKECADPALDFLVEKDQEYCVCEMPCNLTRYGKELSMVKIPSKASAKYLAKKFNKSEQYIGENILVLDIFFEVLNYETIEQKKAYEIAGLLGDIGGQMGLFIGASILTVLELFDYAYEVIKHKLCRR
notes: Trimer in the cryo-EM structures; […]; also called apo-hASIC1a^ΔC

Data set [1] deals with the molecule itself. As to the kind of experiment: cryo-EM structure; apo-hASIC1a^ΔC, single-particle cryo-EM, 2.7 mg/ml, 20 mM Tris pH 8.0, 200 mM NaCl, 0.05% DDM, 0.01% CHS; C3 symmetry imposed; 3.56 Å.
For data set [2], the target named is T1, human acid-sensing ion channel 1a (hASIC1a), full-length, wild type (human, UniProt P78348-2 1-528).
T1 sequence (looked up): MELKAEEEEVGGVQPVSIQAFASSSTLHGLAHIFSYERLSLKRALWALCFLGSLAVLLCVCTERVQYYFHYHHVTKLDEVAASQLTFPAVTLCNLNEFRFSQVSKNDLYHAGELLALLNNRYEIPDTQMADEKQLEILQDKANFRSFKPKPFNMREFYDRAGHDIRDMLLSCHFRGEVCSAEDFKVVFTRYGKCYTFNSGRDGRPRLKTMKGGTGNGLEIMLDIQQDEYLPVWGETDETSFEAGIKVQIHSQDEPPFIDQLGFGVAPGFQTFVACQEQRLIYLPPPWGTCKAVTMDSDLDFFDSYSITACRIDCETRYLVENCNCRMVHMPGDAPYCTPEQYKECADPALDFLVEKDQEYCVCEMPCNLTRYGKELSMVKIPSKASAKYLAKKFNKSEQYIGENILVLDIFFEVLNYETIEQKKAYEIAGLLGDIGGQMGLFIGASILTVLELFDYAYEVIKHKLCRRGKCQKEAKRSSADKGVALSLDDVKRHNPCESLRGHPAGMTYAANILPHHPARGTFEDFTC
As to the kind of experiment: cell-based or functional assay.

In data set [3] the target is T2, chicken acid-sensing ion channel 1 (cASIC1), full-length (chicken, UniProt Q1XA76 1-527).
T2 sequence (looked up): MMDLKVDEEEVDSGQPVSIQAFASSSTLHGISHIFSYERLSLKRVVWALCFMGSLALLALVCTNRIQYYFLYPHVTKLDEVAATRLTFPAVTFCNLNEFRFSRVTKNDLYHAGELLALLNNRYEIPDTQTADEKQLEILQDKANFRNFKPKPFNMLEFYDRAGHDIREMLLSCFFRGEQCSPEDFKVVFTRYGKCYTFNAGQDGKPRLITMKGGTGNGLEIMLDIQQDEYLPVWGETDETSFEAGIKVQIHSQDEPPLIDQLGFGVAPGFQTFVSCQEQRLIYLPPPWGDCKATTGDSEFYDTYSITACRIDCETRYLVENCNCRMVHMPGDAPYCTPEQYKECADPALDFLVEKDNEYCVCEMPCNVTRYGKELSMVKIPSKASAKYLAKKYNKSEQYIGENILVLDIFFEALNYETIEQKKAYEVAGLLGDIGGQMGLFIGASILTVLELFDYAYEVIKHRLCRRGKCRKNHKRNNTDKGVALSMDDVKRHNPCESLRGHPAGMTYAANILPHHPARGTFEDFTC
As to the kind of experiment: cell-based or functional assay.

Data set [4] has as its target B1. As to the kind of experiment: cryo-EM structure; hASIC1a^ΔC-Mamba1 complex, toxin added in a 6:1 molar ratio of toxin to channel, 1 hr at 4°C, 20 mM Tris pH 8.0, 200 mM NaCl, 0.05% DDM, 0.01% CHS; 3.1 mg/ml; 3.90 Å. Particulars: both partners purified.

As to B1, in data set [1], the stoichiometry N (usually the number of molecules, sites or subunits per partner or assembly) was found to be 3.

B2: Mambalgin1 (Mamba1) (peptide)
chain: LKCYQHGKVVTCHRDMKFCYHNTGMPFRNLKLILQGCSSSCSETENNKCCSTDRCNK
notes: also called wild-type Mamba1
In the case of B2, in data set [2], the “IC50 of inhibition of acid-evoked (pH 6.0) currents, whole-cell patch clamp, full-length hASIC1a in CHO cells” value stood at 197 nM and the “IC50 of inhibition of full-length hASIC1a in CHO cells ('the reported IC50', Figure 1b)” value was 149 nM. For the same molecule, in data set [3], the “IC50 of inhibition of acid-evoked (pH 6.0) currents, whole-cell patch clamp, full-length cASIC1 in CHO cells” value is 124 nM. Further, the “stoichiometry N” value in data set [4] was 1 Mamba1 per hASIC1a^ΔC subunit.
